The source of these data is patent US20170158755A1 (PROTHENA BIOSCIENCES, published 2017).

For test [1], the target named is T1, LGde2, human LAMA4 G domain with LG2 deleted, displayed on 293 cells (human, UniProt Q16363 830-1821, limits assumed).
T1 construct: pDisplay construct on 293 cells; vector tags and anchor not written here; also called LGde2 (LG13)
T1 sequence: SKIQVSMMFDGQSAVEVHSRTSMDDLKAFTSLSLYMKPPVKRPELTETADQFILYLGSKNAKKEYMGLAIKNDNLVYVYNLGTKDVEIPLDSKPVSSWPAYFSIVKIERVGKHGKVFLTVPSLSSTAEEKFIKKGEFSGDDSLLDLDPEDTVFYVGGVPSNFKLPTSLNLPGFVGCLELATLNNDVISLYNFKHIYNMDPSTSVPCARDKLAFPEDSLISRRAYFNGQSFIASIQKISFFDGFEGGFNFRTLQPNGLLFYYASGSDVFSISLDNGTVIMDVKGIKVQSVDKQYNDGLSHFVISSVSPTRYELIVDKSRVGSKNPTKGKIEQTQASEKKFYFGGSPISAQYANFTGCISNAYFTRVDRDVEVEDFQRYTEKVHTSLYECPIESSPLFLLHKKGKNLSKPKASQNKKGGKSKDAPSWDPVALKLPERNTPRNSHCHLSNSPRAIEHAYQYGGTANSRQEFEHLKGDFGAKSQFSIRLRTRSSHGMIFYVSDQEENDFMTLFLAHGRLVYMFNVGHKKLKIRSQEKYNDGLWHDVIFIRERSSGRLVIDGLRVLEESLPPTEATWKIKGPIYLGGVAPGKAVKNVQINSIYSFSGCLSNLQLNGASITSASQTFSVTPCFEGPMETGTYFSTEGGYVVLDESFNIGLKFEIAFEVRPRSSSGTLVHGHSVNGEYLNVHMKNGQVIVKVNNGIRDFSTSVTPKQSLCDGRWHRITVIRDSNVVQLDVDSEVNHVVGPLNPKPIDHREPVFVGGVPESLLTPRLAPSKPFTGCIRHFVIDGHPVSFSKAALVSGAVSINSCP
Kind of test: flow cytometry on 293 cells displaying LAMA4 G-domain variants; % binding. The source says:
(§1) LGde1 has a full-length G domain (i.e., LG1-5) with LG1 deleted, LGde2 has a full-length G domain with LG2 deleted, and LGde3 has a full-length G domain with LG3 deleted. Recombinant MCAM-Fc protein was able to specifically bind 293 cells expressing LAMA4 variants LG1-5, LG1-3, and LGde 1 (LG23), but not 293 cells expressing LAMA 4 variants LG4-5, LGde2 (LG13), or LGde3 (LG12).

The target of test [2] is T2, LGde3, human LAMA4 G domain with LG3 deleted, displayed on 293 cells (human, UniProt Q16363 830-1821, limits assumed).
T2 construct: pDisplay construct on 293 cells; vector tags and anchor not written here; also called LGde3 (LG12); LGde3 (LG23)
T2 sequence: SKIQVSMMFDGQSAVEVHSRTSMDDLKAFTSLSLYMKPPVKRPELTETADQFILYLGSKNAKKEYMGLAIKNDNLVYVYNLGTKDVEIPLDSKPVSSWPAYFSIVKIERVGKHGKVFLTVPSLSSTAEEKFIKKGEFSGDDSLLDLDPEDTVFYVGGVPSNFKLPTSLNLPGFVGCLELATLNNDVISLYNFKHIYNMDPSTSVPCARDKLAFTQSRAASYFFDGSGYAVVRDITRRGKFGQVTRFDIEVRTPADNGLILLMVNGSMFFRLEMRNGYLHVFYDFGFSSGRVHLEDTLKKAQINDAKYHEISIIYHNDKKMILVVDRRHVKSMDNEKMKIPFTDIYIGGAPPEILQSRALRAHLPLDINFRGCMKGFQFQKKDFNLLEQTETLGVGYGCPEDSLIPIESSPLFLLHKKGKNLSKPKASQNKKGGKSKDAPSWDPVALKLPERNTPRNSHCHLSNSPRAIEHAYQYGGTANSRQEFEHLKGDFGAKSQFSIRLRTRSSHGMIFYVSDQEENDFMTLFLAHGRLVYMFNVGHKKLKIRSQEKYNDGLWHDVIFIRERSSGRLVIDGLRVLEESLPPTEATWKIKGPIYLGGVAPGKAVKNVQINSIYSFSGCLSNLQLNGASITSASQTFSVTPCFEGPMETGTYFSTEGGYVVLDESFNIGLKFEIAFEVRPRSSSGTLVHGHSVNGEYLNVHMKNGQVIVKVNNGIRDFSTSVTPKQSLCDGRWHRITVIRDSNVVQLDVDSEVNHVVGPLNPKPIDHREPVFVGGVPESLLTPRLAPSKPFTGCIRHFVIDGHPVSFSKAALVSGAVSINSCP
The test is described as above.
Excerpt: as §1

B1: mouse monoclonal antibody 1C1 (antibody, V domains shown)
VH: QVQLQQSGAELARPGASVKLSCKASGYTFTNYGISWVKQRTGQGLEWIGAIYPRSGNTYYNEKFKGKATLTADKSSSTAYMELRSLTSEDSAVYFCARERDYGSSYALDYWGQGTSVTVSS
VL: DIVMTQSQKFMSTSVGDRVSVTCKASHNVGTNVAWYQQKPGQSPKPLIYSASYRYSGVPDRFTGSGSGTDFTLTISNVQSEDLADYFCQQFNNYPYTFGGGTKLEIKR
notes: version 1 is written here
Regarding B1, the binding result in test [1] and in test [2] was “no binding” in each case.

B2: mouse monoclonal antibody 19C12 (antibody, V domains shown)
VH: QVQLQQSGAELVKPGASVKISCKASGYAFSTYWMNWVKQRPGEGLEWIGQIYPGDGDTNYNGKFKGKATLTADKSSSTAYMQLSSLTSEDSAVYFCARSDGYYDYWGQGTTLTVSS
VL: NIVLTQSPASLAVSLGQRATISCRASESVDSYGTSFMHWYQQKPGQPPKLLICLASSLESGVPARFSGSGSRTDFTLTIDPVEADDAATYYCQQNNEDPPTFGAGTKLELKR
notes: Mouse hybridoma antibody; Mouse IgG2b was used as its isotype control; also called m19C12
With B2, the binding result in test [1] and in test [2] was “no binding” throughout.
